We go through 26 molecules from patent EP0866075B1 (Arpida AG,, dated 1998).

No end group written: not given here.

The target in one experiment is T1, enzyme I (phosphoenolpyruvate-protein phosphotransferase, EC 2.7.3.9) of the E. coli phosphotransferase system (E. coli, UniProt P08839 1-575). As to the kind of experiment: cell-based or functional assay.
Turning to KKFDLRK [peptide 3 KKFDLRK], the “inhibition IC50” value amounted to 820 µM and the “uncoupling P;Ipeptide/h” value is 0.05 Pi/peptide/h.
In the case of KKWHKRKK [peptide 8 KKWHKRKK], the “inhibition IC50” value is 440 µM and the “uncoupling P;Ipeptide/h” value was 0.215 Pi/peptide/h.
On the same counts, the results for KKWHLRKR [peptide 5 KKWHLRKR] are 30 µM and 0.3 Pi/peptide/h.
For the molecule WHKR [peptide 12 WHKR], the “inhibition IC50” value is 4900 µM.
Turning to KKFHIRKR [peptide 9 KKFHIRKR], the “inhibition IC50” value is 160 µM and the “uncoupling P;Ipeptide/h” value was found to be 0.31 Pi/peptide/h.
Regarding Ac-WHKR [peptide 13 Ac-WHKR], the “inhibition IC50” value stood at 5800 µM.
On to KKFHLRK [peptide 1 KKFHLRK], for which the “inhibition IC50” value came to 150 µM and the “uncoupling P;Ipeptide/h” value turned out to be 0.49 Pi/peptide/h.
The matching figures for KGWHKRKK [peptide 6 KGWHKRKK]: 530 µM and 0.23 Pi/peptide/h.
The matching figures for KKWHRRKK [peptide 7 KKWHRRKK]: 300 µM and 0.29 Pi/peptide/h.

The target in a further experiment is T1, enzyme I (phosphoenolpyruvate-protein …). Kind of experiment: cell-based or functional assay. The source holds these as a separate data set.
As to KISRHGKRGK [peptide 18 KISRHGKRGK], the “inhibition IC50” value was 140 µM and the “uncoupling Pi/peptide (x IC50/h)” value is 1.9 Pi/peptide (x IC50/h).
With RHYLLF [peptide 26 RHYLLF], the “inhibition IC50” value stood at 500 µM.
The same measure, in the same setting: under RHWSIF [peptide 24 RHWSIF] stands 400 µM.
Regarding DGARLHYLF [peptide 22 DGARLHYLF], the “inhibition IC50” value was determined as 1200 µM and the “uncoupling Pi/peptide (x IC50/h)” value is 132 Pi/peptide (x IC50/h).
MRLLKTLCFGLCG [peptide 31 MRLLKTLCFGLCG]: the “inhibition IC50” value is 3500 µM.
On to Ac-DGARLHYLF [peptide 23 AcDGARLHYLF], for which the “inhibition IC50” value is 7600 µM and the “uncoupling Pi/peptide (x IC50/h)” value was 15.2 Pi/peptide (x IC50/h).
On the same counts, the results for GLRFGKTRVHYLVLG [peptide 14 GLRFGKTRVHYLVLG] are 25 µM and 3.2 Pi/peptide (x IC50/h).
RIHFIPRRGR [peptide 20 RIHFIPRRGR]: the “inhibition IC50” value amounted to 280 µM and the “uncoupling Pi/peptide (x IC50/h)” value is 39.6 Pi/peptide (x IC50/h).
On the same counts, the results for RLHYLF [peptide 21 RLHYLF] are 375 µM and 64.2 Pi/peptide (x IC50/h).
Turning to Ac-MRLLKTLCFVGLCG (cysteine pairing not given here) [peptide 32 AcMRLLKTLCFVGLCG], the “inhibition IC50” value was above 10000 µM.
Still for that read-out and setting: the same measure for RHRTLF [peptide 25 RHRTLF]: 410 µM; for RHITLF [peptide 28 RHITLF]: 1380 µM.
As for KMSRHRKPGA [peptide 16 KMSRHRKPGA], the “inhibition IC50” value was 100 µM and the “uncoupling Pi/peptide (x IC50/h)” value was 22.2 Pi/peptide (x IC50/h).
In the case of RHITSL [peptide 27 RHITSL], the “inhibition IC50” value stood at 650 µM.
Regarding MSRHRN [peptide 29 MSRHRN], the “inhibition IC50” value worked out at 760 µM and the “uncoupling Pi/peptide (x IC50/h)” value is 144 Pi/peptide (x IC50/h).
The matching figures for SGRKSTRVHHWLLVL (not fully specified (residue 11)) [peptide 15 SGRKSTRVHHWLLVL]: 60 µM and 6.6 Pi/peptide (x IC50/h).
On the same counts, the results for KISRHGRPTG [peptide 19 KISRHGRPTG] are 1060 µM and 479 Pi/peptide (x IC50/h).
